From article PMC7311308
pKd: −log10 of the molar value.

Target: CD46-D4

Substance: Ad26 knob (domain or fragment)
- pKd: 6.92
